Measurements published in patent US20110091994A1, “Methods for Screening Compounds for Treating and/or Preventing an Hepatitis C Virus Infection” (priority 2008, published 2011).
Where two headings read alike, the source gives them in different places.

Columns and labels:
[1] = test system: HCV ORFs (Gal4-DB fusions); format: binding, HCV genotype 1b, isolate con1; settings: human protein listed by gene symbol; the value names the HCV protein it interacts with
[2] = target: T1, HCV ORFs (Gal4-DB fusions) (Hepatitis C virus genotype 1b, UniProt Q9WMX2); format: binding, HCV genotype 1b, isolate con1; settings: human protein as prey
T1 construct: expressed in transfected cells; host or cells: Saccharomyces cerevisiae MAV203 (IMAP1) / AH109 (IMAP2)

HCV proteins = target: T2, HCV proteins (Hepatitis C virus genotype 1b, UniProt Q9WMX2); test: Validation by Y2H pairwise matrices; format: binding;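 also: yeast two-hybrid pairwise tests of interactions first found in Y2H screens of HCV bait proteins against human cDNA libraries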
T2 construct: expressed in transfected cells

[3] = validation of interaction with HCV protein NS3
[4] = validation of interaction with HCV protein CORE
[5] = validation of interaction with HCV protein E1
[6] = interaction with HCV protein p7
[7] = validation of interaction with HCV protein NS4A
[8] = interaction with HCV protein NS5B
[9] = validation of interaction with HCV protein E2
[10] = validation of interaction with HCV protein NS2
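For IMAP Y2H IMAP1 (number of IST) in this document: yeast two-hybrid screens using HCV genotype 1b proteins fused to Gal4-DB as baits against prey cDNA libraries from human spleen and foetal brain, IMAP1 via transformation and IMAP2 via mating.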
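For IMAP Y2H IMAP2 (number of IST) in this document: yeast two-hybrid screens using HCV genotype 1b proteins fused to Gal4-DB as baits against prey cDNA libraries from human spleen and foetal brain, IMAP1 via transformation and IMAP2 via mating.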
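For Interaction with viral protein in this document: yeast two-hybrid screens using HCV genotype 1b proteins fused to Gal4-DB as baits against prey cDNA libraries from human spleen and foetal brain, IMAP1 via transformation and IMAP2 via mating.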

| Substance | Interaction with viral protein [1] | IMAP Y2H IMAP1 (number of IST) ([2]; HCV protein NS3 as bait) | Y2H matrices (HCV proteins; [3]) | also measured |
| --- | --- | --- | --- | --- |
| NOTCH1 | NS3 | 2 | + |  |
| CEP63 | NS5A |  |  | IMAP Y2H IMAP2 (number of IST) ([2]; HCV protein NS5A as bait): 1 |
| ANKRD12 | NS3 | 1 | + |  |
| MLLT4 | NS3 | 2 | + |  |
| CADPS | NS5A |  |  | IMAP Y2H IMAP2 (number of IST) ([2]; HCV protein NS5A as bait): 1 |
| NDC80 | NS3 |  |  | IMAP Y2H IMAP2 (number of IST) ([2]; HCV protein NS3 as bait): 1 |
| SYNE1 | NS3 |  |  | IMAP Y2H IMAP2 (number of IST) ([2]; HCV protein NS3 as bait): 4 |
| HIVEP2 | NS3 and CORE | 3 | + | IMAP Y2H IMAP2 (number of IST) ([2]; HCV protein CORE as bait): 2; IMAP Y2H IMAP2 (number of IST) ([2]; HCV protein NS3 as bait): 5 |
| PSME3 | NS3 | 10 | + |  |
| APOA1 | NS3/4A and NS4B and NS2 and NS3 |  |  |  |
| LAMB2 | NS3 | 1 | + |  |
| VWF | NS3 and CORE | 26 | + | IMAP Y2H IMAP1 (number of IST) ([2]; HCV protein CORE as bait): 2; Y2H matrices (HCV proteins; [4]): + |
| RICS | NS3 | 3 | + | IMAP Y2H IMAP2 (number of IST) ([2]; HCV protein NS3 as bait): 1 |
| TRIOBP |  |  |  | IMAP Y2H IMAP2 (number of IST) ([2]; HCV protein NS5A as bait): 2 |
| SMYD3 | NS5A |  |  | IMAP Y2H IMAP1 (number of IST) ([2]; HCV protein NS5A as bait): 1; Y2H matrices (HCV proteins; interaction with HCV protein NS5A): + |
| TMSB4X |  |  |  | IMAP Y2H IMAP1 (number of IST) ([2]; HCV protein E1 as bait): 1; Y2H matrices (HCV proteins; [5]): + |
| PDE4DIP | NS3 | 3 | + |  |
| DOCK7 | NS3 |  |  | IMAP Y2H IMAP2 (number of IST) ([2]; HCV protein NS3 as bait): 2 |
| CEP250 | NS5A |  |  | IMAP Y2H IMAP2 (number of IST) ([2]; HCV protein NS5A as bait): 15; IMAP Y2H IMAP2 (number of IST) ([2]; HCV protein NS5B as bait): 1 |
| MAPK7 | NS3 | 4 | + |  |

| Substance | Interaction with viral protein [1] | IMAP Y2H IMAP1 (number of IST) ([2]; HCV protein NS3 as bait) | Y2H matrices (HCV proteins; [3]) | also measured |
| --- | --- | --- | --- | --- |
| KIAA1549 | NS3 | 1 | + |  |
| STAT3 | NS3 | 1 | + |  |
| BZRAP1 | NS3 | 1 | + |  |
| CADPS2 | NS5A |  |  | IMAP Y2H IMAP2 (number of IST) ([2]; HCV protein NS5A as bait): 1 |
| ITGB4 | NS3 | 7 | + |  |
| ASXL1 | NS5A and NS3 | 1 | + |  |
| RUSC2 | NS3 | 21 | + | IMAP Y2H IMAP2 (number of IST) ([2]; HCV protein NS3 as bait): 1 |
| CSNK2B | NS3 | 3 | + |  |
| GFAP | NS3 | 43 | + |  |
| CEP152 | NS3 | 1 | + |  |
| PARP4 | NS3 | 8 | + |  |
| OBSCN | NS3 | 1 |  |  |
| MEGF6 | CORE |  |  | IMAP Y2H IMAP1 (number of IST) ([2]; HCV protein CORE as bait): 1; Y2H matrices (HCV proteins; [4]): + |
| UBQLN1 | NS4A |  |  | IMAP Y2H IMAP1 (number of IST) ([2]; HCV protein NS4A as bait): 2; IMAP Y2H IMAP1 (number of IST) ([2]; HCV protein p7 as bait): 3; Y2H matrices (HCV proteins; [6]): +; Y2H matrices (HCV proteins; [7]): + |
| FLAD1 | NS3 | 1 | + |  |
| THBS1 | NS5A |  |  | IMAP Y2H IMAP2 (number of IST) ([2]; HCV protein NS5A as bait): 7 |
| SHARPIN | NS5A |  |  | IMAP Y2H IMAP2 (number of IST) ([2]; HCV protein NS5A as bait): 2; IMAP Y2H IMAP2 (number of IST) ([2]; HCV protein NS5B as bait): 1 |
| FHL2 | NS5A |  |  | IMAP Y2H IMAP2 (number of IST) ([2]; HCV protein NS5A as bait): 1 |
| GAPDH | CORE |  |  | IMAP Y2H IMAP1 (number of IST) ([2]; HCV protein CORE as bait): 1; Y2H matrices (HCV proteins; [4]): + |
| SVEP1 | NS3 | 3 | + |  |

| Substance | Interaction with viral protein [1] | IMAP Y2H IMAP1 (number of IST) ([2]; HCV protein NS3 as bait) | Y2H matrices (HCV proteins; [3]) | also measured |
| --- | --- | --- | --- | --- |
| NELL2 | NS3 | 11 | + |  |
| TRIO | NS3 | 1 | + | IMAP Y2H IMAP2 (number of IST) ([2]; HCV protein NS3 as bait): 1 |
| VCAN | NS3 | 1 | + |  |
| GON4L | NS3 | 1 | + |  |
| TUBB2C |  |  |  | IMAP Y2H IMAP1 (number of IST) ([2]; HCV protein NS5B as bait): 1; Y2H matrices (HCV proteins; [8]): + |
| SLIT1 | NS3 | 7 | + |  |
| TAF1 | NS3 | 2 | + |  |
| HNRPK |  |  |  | IMAP Y2H IMAP2 (number of IST) ([2]; HCV protein CORE as bait): 14; IMAP Y2H IMAP2 (number of IST) ([2]; HCV protein NS3 as bait): 1 |
| SETD2 |  |  |  | IMAP Y2H IMAP1 (number of IST) ([2]; HCV protein CORE as bait): 5; IMAP Y2H IMAP1 (number of IST) ([2]; HCV protein E1 as bait): 2; IMAP Y2H IMAP1 (number of IST) ([2]; HCV protein E2 as bait): 1; IMAP Y2H IMAP1 (number of IST) ([2]; HCV protein NS2 as bait): 1; IMAP Y2H IMAP1 (number of IST) ([2]; HCV protein NS5B as bait): 3; Y2H matrices (HCV proteins; [8]): +; Y2H matrices (HCV proteins; [4]): +; Y2H matrices (HCV proteins; [5]): +; Y2H matrices (HCV proteins; [9]): +; Y2H matrices (HCV proteins; [10]): + |
| AXIN1 | NS5A |  |  | IMAP Y2H IMAP2 (number of IST) ([2]; HCV protein NS5A as bait): 1 |
| ROGDI | NS3 |  |  | IMAP Y2H IMAP2 (number of IST) ([2]; HCV protein NS3 as bait): 1 |
| UBQLN4 |  |  |  | IMAP Y2H IMAP1 (number of IST) ([2]; HCV protein p7 as bait): 3; Y2H matrices (HCV proteins; [6]): + |
| NR4A1 |  |  |  | IMAP Y2H IMAP1 (number of IST) ([2]; HCV protein CORE as bait): 31; IMAP Y2H IMAP1 (number of IST) ([2]; HCV protein E1 as bait): 14; IMAP Y2H IMAP1 (number of IST) ([2]; HCV protein E2 as bait): 6; IMAP Y2H IMAP1 (number of IST) ([2]; HCV protein NS2 as bait): 5; IMAP Y2H IMAP1 (number of IST) ([2]; HCV protein NS4A as bait): 3; IMAP Y2H IMAP1 (number of IST) ([2]; HCV protein NS5B as bait): 8; Y2H matrices (HCV proteins; [8]): +; Y2H matrices (HCV proteins; [4]): +; Y2H matrices (HCV proteins; [5]): +; Y2H matrices (HCV proteins; [9]): +; Y2H matrices (HCV proteins; [10]): +; Y2H matrices (HCV proteins; [7]): + |
| JUN |  | 8 | + | IMAP Y2H IMAP1 (number of IST) ([2]; HCV protein E1 as bait): 1; Y2H matrices (HCV proteins; [5]): + |
| HOXD8 |  |  |  | IMAP Y2H IMAP1 (number of IST) ([2]; HCV protein CORE as bait): 1; IMAP Y2H IMAP1 (number of IST) ([2]; HCV protein E2 as bait): 1; IMAP Y2H IMAP1 (number of IST) ([2]; HCV protein NS2 as bait): 1; IMAP Y2H IMAP1 (number of IST) ([2]; HCV protein NS4A as bait): 1; IMAP Y2H IMAP1 (number of IST) ([2]; HCV protein NS5B as bait): 1; Y2H matrices (HCV proteins; [8]): +; Y2H matrices (HCV proteins; [4]): +; Y2H matrices (HCV proteins; [9]): +; Y2H matrices (HCV proteins; [10]): +; Y2H matrices (HCV proteins; [7]): + |
| ITGB1 |  |  |  | IMAP Y2H IMAP1 (number of IST) ([2]; HCV protein E2 as bait): 1; Y2H matrices (HCV proteins; [9]): + |
| LRRC7 | NS3 |  |  | IMAP Y2H IMAP2 (number of IST) ([2]; HCV protein NS3 as bait): 6 |
| PSMA6 |  |  |  | IMAP Y2H IMAP1 (number of IST) ([2]; HCV protein E2 as bait): 1; Y2H matrices (HCV proteins; [9]): + |
